B1: Activated CDC42 kinase 1 (Homo sapiens), Q07912-2 (parent)
chain: MQPEEGTGWLLELLSEVQLQQYFLRLRDDLNVTRLSHFEYVKNEDLEKIGMGRPGQRRLWEAVKRRKALCKRKSWMSKVFSGKRLEAEFPPHHSQSTFRKTSPAPGGPAGEGPLQSLTCLIGEKDLRLLEKLGDGSFGVVRRGEWDAPSGKTVSVAVKCLKPDVLSQPEAMDDFIREVNAMHSLDHRNLIRLYGVVLTPPMKMVTELAPLGSLLDRLRKHQGHFLLGTLSRYAVQVAEGMGYLESKRFIHRDLAARNLLLATRDLVKIGDFGLMRALPQNDDHYVMQEHRKVPFAWCAPESLKTRTFSHASDTWMFGVTLWEMFTYGQEPWIGLNGSQILHKIDKEGERLPRPEDCPQDIYNVMVQCWAHKPEDRPTFVALRDFLLEAQPTDMRALQDFEEPDKLHIQMNDVITVIEGRAENYWWRGQNTRTLCVGPFPRNVVTSVAGLSAQDISQPLQNSFIHTGHGDSDPRHCWGFPDRIDECPFSAFSPGHPPAETCGQVLWTGRREACASDPRLHPVSSRTKGL
partner: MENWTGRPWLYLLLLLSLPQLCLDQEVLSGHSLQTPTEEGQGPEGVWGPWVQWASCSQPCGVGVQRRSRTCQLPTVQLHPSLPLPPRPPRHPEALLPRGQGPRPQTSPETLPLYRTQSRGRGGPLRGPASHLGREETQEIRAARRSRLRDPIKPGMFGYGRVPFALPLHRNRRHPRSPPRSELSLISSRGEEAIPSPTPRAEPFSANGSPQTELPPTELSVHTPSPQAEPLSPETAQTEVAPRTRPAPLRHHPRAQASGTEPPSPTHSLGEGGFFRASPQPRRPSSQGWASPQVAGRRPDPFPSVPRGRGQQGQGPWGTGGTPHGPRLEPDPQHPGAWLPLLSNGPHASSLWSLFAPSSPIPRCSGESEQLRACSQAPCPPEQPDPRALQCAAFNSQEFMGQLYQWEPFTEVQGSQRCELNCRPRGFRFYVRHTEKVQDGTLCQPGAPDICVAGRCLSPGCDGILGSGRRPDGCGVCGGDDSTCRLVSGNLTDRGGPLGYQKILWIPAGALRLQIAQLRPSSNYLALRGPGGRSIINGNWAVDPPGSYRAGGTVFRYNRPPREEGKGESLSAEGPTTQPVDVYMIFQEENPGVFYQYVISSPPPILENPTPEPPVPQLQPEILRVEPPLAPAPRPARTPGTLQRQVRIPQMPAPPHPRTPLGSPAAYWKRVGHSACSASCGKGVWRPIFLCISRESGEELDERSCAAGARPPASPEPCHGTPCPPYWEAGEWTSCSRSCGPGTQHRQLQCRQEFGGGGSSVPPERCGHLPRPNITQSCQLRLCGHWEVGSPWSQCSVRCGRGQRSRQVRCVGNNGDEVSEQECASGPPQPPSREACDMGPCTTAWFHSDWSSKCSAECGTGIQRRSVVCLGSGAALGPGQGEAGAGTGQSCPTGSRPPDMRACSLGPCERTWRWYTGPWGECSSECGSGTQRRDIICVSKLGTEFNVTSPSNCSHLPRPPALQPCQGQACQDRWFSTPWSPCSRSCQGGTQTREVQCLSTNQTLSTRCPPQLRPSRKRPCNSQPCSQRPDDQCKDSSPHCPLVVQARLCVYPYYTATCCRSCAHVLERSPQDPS
B2: Probable RNA-binding protein EIF1AD (Homo sapiens), Q8N9N8 (parent)
chain: MSQATKRKHVVKEVLGEHIVPSDQQQIVRVLRTPGNNLHEVETAQGQRFLVSMPSKYRKNIWIKRGDFLIVDPIEEGEKVKAEISFVLCKDHVRSLQKEGFWPEAFSEVAEKHNNRNRQTQPELPAEPQLSGEESSSEDDSDLFVNTNRRQYHESEEESEEEEAA
partner: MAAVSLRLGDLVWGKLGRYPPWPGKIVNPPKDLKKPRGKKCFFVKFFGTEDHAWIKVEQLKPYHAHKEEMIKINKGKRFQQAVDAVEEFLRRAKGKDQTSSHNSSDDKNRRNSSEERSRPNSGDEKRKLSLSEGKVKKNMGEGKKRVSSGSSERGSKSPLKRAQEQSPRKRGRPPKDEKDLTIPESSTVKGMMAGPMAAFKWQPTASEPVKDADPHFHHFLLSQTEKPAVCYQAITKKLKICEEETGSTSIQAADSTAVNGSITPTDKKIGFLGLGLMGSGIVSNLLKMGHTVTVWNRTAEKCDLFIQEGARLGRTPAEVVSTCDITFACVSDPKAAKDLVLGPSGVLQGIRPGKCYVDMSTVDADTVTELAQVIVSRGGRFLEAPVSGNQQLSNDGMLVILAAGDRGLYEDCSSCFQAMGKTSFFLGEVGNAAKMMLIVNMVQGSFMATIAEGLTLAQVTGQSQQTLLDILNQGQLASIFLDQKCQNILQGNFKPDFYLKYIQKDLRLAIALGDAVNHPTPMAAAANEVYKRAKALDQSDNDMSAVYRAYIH
B3: Serine/threonine-protein kinase PAK 5 (Homo sapiens), Q9P286 (parent)
chain: MFGKKKKKIEISGPSNFEHRVHTGFDPQEQKFTGLPQQWHSLLADTANRPKPMVDPSCITPIQLAPMKTIVRGNKPCKETSINGLLEDFDNISVTRSNSLRKESPPTPDQGASSHGPGHAEENGFITFSQYSSESDTTADYTTEKYREKSLYGDDLDPYYRGSHAAKQNGHVMKMKHGEAYYSEVKPLKSDFARFSADYHSHLDSLSKPSEYSDLKWEYQRASSSSPLDYSFQFTPSRTAGTSGCSKESLAYSESEWGPSLDDYDRRPKSSYLNQTSPQPTMRQRSRSGSGLQEPMMPFGASAFKTHPQGHSYNSYTYPRLSEPTMCIPKVDYDRAQMVLSPPLSGSDTYPRGPAKLPQSQSKSGYSSSSHQYPSGYHKATLYHHPSLQSSSQYISTASYLSSLSLSSSTYPPPSWGSSSDQQPSRVSHEQFRAALQLVVSPGDPREYLANFIKIGEGSTGIVCIATEKHTGKQVAVKKMDLRKQQRRELLFNEVVIMRDYHHDNVVDMYSSYLVGDELWVVMEFLEGGALTDIVTHTRMNEEQIATVCLSVLRALSYLHNQGVIHRDIKSDSILLTSDGRIKLSDFGFCAQVSKEVPKRKSLVGTPYWMAPEVISRLPYGTEVDIWSLGIMVIEMIDGEPPYFNEPPLQAMRRIRDSLPPRVKDLHKVSSVLRGFLDLMLVREPSQRATAQELLGHPFLKLAGPPSCIVPLMRQYRHH
partner: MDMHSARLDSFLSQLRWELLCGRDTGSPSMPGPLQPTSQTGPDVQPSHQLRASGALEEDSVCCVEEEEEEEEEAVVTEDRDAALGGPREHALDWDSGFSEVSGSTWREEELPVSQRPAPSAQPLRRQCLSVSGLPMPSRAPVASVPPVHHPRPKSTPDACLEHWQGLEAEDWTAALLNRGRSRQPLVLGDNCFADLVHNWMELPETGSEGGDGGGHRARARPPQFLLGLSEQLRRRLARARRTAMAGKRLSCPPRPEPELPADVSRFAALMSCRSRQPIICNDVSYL
B4: LIM/homeobox protein Lhx4 (Homo sapiens), Q969G2 (parent)
chain: MMQSATVPAEGAVKGLPEMLGVPMQQIPQCAGCNQHILDKFILKVLDRHWHSSCLKCADCQMQLADRCFSRAGSVYCKEDFFKRFGTKCTACQQGIPPTQVVRKAQDFVYHLHCFACIICNRQLATGDEFYLMEDGRLVCKEDYETAKQNDDSEAGAKRPRTTITAKQLETLKNAYKNSPKPARHVREQLSSETGLDMRVVQVWFQNRRAKEKRLKKDAGRHRWGQFYKSVKRSRGSSKQEKESSAEDCGVSDSELSFREDQILSELGHTNRIYGNVGDVTGGQLMNGSFSMDGTGQSYQDLRDGSPYGIPQSPSSISSLPSHAPLLNGLDYTVDSNLGIIAHAGQGVSQTLRAMAGGPTSDISTGSSVGYPDFPTSPGSWLDEMDHPPF
partner: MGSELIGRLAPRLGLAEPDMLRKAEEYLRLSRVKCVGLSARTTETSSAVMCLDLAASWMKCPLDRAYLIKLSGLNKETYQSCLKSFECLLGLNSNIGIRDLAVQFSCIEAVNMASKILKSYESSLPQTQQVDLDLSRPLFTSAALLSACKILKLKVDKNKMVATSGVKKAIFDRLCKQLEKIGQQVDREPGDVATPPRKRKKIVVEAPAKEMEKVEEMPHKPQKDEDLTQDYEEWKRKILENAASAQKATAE
B5: Tyrosine-protein kinase FRK (Homo sapiens), P42685 (parent)
chain: MSNICQRLWEYLEPYLPCLSTEADKSTVIENPGALCSPQSQRHGHYFVALFDYQARTAEDLSFRAGDKLQVLDTLHEGWWFARHLEKRRDGSSQQLQGYIPSNYVAEDRSLQAEPWFFGAIGRSDAEKQLLYSENKTGSFLIRESESQKGEFSLSVLDGAVVKHYRIKRLDEGGFFLTRRRIFSTLNEFVSHYTKTSDGLCVKLGKPCLKIQVPAPFDLSYKTVDQWEIDRNSIQLLKRLGSGQFGEVWEGLWNNTTPVAVKTLKPGSMDPNDFLREAQIMKNLRHPKLIQLYAVCTLEDPIYIITELMRHGSLQEYLQNDTGSKIHLTQQVDMAAQVASGMAYLESRNYIHRDLAARNVLVGEHNIYKVADFGLARVFKVDNEDIYESRHEIKLPVKWTAPEAIRSNKFSIKSDVWSFGILLYEIITYGKMPYSGMTGAQVIQMLAQNYRLPQPSNCPQQFYNIMLECWNAEPKERPTFETLRWKLEDYFETDSSYSDANNFIR
partner: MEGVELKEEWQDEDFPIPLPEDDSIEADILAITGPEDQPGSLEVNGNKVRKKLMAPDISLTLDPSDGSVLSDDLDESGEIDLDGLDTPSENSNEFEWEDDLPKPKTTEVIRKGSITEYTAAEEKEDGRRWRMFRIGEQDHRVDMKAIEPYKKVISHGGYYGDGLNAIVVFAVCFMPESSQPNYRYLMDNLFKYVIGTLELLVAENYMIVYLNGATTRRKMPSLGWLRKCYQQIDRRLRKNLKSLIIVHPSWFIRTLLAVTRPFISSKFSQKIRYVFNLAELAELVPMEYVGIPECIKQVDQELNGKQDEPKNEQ
B6: Protein LDOC1 (Homo sapiens), O95751 (parent)
chain: MVDELVLLLHALLMRHRALSIENSQLMEQLRLLVCERASLLRQVRPPSCPVPFPETFNGESSRLPEFIVQTASYMLVNENRFCNDAMKVAFLISLLTGEAEEWVVPYIEMDSPILGDYRAFLDEMKQCFGWDDDEDDDDEEEEDDY
partner: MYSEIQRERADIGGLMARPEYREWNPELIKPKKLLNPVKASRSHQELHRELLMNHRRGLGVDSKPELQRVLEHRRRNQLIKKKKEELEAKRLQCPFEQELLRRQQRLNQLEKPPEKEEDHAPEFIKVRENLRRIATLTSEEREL

Variants of B1 are the subject of the first experiment. Particulars: with atl4_human ADAMTSL4, Q6UY14.
In the case of R34L, the “effect of a mutation on the interaction” value is “with no effect”.

The variants in a further experiment derive from B2. Particulars: with glyr1_human GLYR1, Q49A26.
On to R48C, for which the “effect of a mutation on the interaction” value was “with no effect”.

A further experiment covers variants of B3. Particulars: with inka1_human INKA1, Q96EL1.
In the case of S511N, the “effect of a mutation on the interaction” value is given as “with no effect”.

Variants of B4 are the subject of a further experiment. Particulars: with orc6_human ORC6, Q9Y5N6.
Regarding N328S, the “effect of a mutation on the interaction” value is “with no effect”.

Variants of B5 are the subject of the next experiment. To be noted: with bnip2_human BNIP2, Q12982.
In the case of G122R, the “effect of a mutation on the interaction” value is given as “disrupting interaction strength”.

Variants of B6 are the subject of a further experiment. To be noted: with FAM107A.
Consider L12H, for which the “effect of a mutation on the interaction” value is given as “disrupting interaction strength”.

The record behind these values is IntAct's records for PubMed 31515488.
